Assay results published in US20030060435.

Legend:
[1] = target: T1, mouse wild-type p53 protein, P02340
T1 chain: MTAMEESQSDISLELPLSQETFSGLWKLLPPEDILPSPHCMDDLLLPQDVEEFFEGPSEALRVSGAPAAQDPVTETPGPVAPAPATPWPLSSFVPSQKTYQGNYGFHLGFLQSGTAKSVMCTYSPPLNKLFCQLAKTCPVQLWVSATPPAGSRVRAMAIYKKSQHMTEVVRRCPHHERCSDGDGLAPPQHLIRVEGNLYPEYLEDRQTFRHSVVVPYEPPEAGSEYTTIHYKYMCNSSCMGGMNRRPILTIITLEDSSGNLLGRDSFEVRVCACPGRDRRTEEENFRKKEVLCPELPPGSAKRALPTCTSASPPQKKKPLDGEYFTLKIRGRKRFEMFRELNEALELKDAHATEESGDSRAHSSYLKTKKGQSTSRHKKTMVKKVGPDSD

[2] = target: human wild-type p53 protein, P04637
[3] = target: glyceraldehyde-3-phosphate dehydrogenase

Sequence of human wild-type p53 protein, P04637 (P04637 whole entry, looked up): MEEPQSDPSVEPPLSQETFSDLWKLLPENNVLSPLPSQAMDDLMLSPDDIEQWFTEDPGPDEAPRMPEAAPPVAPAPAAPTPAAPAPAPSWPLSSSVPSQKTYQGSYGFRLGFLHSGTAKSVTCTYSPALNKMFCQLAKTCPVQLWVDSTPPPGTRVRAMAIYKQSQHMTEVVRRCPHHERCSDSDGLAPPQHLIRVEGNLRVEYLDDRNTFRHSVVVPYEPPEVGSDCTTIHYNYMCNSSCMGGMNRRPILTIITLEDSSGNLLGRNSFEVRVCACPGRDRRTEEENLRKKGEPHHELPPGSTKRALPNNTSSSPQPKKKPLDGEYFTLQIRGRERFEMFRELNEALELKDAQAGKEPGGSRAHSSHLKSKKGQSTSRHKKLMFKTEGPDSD

B1: bovine m-calpain (Sigma) (protein)
chain 1: AGIAAKLAKDREAAEGLGSHERAVKYLNQDYAALRDECLEAGALFQDPSFPALPSSLGFKELGPYSSKTRGIEWKRPTEICDNPQFITGGATRTDICQGALGDCWLLAAIASLTLNEEILARVVPLDQSFQENYAGIFHFQFWQYGEWVEVVVDDRLPTKDGELLFVHSAEGSEFWSALLEKAYAKINGCYEALSGGATTEGFEDFTGGIAEWYELRKAPPNLFRIIQKALQKGSLLGCSIDITSAADSEAITFQKLVKGHAYSVTGAEEVESRGSLQKLIRIRNPWGEVEWTGQWNDNCPNWNTVDPEVRETLTRQHEDGEFWMSFNDFLRHYSRLEICNLTPDTLTSDSYKKWKLTKMDGNWRRGSTAGGCRNYPNTFWMNPQYLIKLEEEDEDQEDGESGCTFLVGLIQKHRRRQRKMGEDMHTIGFGIYEVPEELTGQTNIHLSKKFFLTTRARERSDTFINLREVLNRFKLPPGEYIVVPSTFEPNKDGDFCIRVFSEKKADYQVVDDEIEANIDEIDISEDDIDDGFRRLFAQLAGEDAEISAFELQTILRRVLAKRQDIKSDGFSIETCKIMVDMLDSDGSGKLGLKEFYILWTKIQKYQKIYREIDVDRSGTMNSYEMRKALEEAGFKMPCQLHQVIVARFADDDLIIDFDNFVRCLIRLETLFRIFKQLDPENTGMIQLDLISWLSFSVL
chain 2: MFLVNSFLKGGGGGGGGGGLGGGLGNVLGGLISGAGGGGGGGGGGGGGGGGTAMRILGGVISAISEAAAQYNPEPVPPRTHYSNIEANESEEVRQFRRLFAQLAGDDMEVSATELMNILNKVVTRHPDLKTDGFGIDTCRSMVAVMDSDTTGKLGFEEFKYLWNNIKKWQAVYKQFDVDRSGTIGSSELPGAFEAAGFRLNEHLYNMIIRRYSDEGGNMDFDNFISCLVRLDAMFRAFKSLDKDGTGQIQVNIQEWLQLTMYS
Question: What does the source list for B1?
Answer: degradation of the in vitro translated protein in reticulocyte lysate with calcium (electrophoresis) [1]: led to the rapid disappearance of the neosynthesized proteins and the appearance of proteolytic fragments; degradation of the protein in reticulocyte lysate with calcium and m-calpain (dihydrofolate reductase): The degradation resistance of other proteins such as dihydrofolate reductase or glyceraldehyde-3-phosphate dehydrogenase under the same experimental conditions; degradation of the in vitro translated protein in reticulocyte lysate with calcium (electrophoresis) [2]: led to the rapid disappearance of the neosynthesized proteins and the appearance of proteolytic fragments; degradation of the protein in reticulocyte lysate with calcium and m-calpain [3]: The degradation resistance of other proteins such as dihydrofolate reductase or glyceraldehyde-3-phosphate dehydrogenase under the same experimental conditions
